Reference: patent publication US20110263454A1, “Methods of Identifying Functional Characteristics of Promoters, Transcription Modifying Proteins and Transcription Modulating Agents” (Salk Institute for Biological Studies, priority 2008, published 2011)

B1: RARb: Retinoic acid receptor β (NR1B2), nuclear hormone receptor cDNA driver (protein, UniProt P10826 1-455, looked up)
Retinoic acid receptor beta: MTTSGHACPVPAVNGHMTHYPATPYPLLFPPVIGGLSLPPLHGLHGHPPPSGCSTPSPATIETQSTSSEELVPSPPSPLPPPRVYKPCFVCQDKSSGYHYGVSACEGCKGFFRRSIQKNMIYTCHRDKNCVINKVTRNRCQYCRLQKCFEVGMSKESVRNDRNKKKKETSKQECTESYEMTAELDDLTEKIRKAHQETFPSLCQLGKYTTNSSADHRVRLDLGLWDKFSELATKCIIKIVEFAKRLPGFTGLTIADQITLLKAACLDILILRICTRYTPEQDTMTFSDGLTLNRTQMHNAGFGPLTDLVFTFANQLLPLEMDDTETGLLSAICLICGDRQDLEEPTKVDKLQEPLLEALKIYIRKRRPSKPHMFPKILMKITDLRSISAKGAERVITLKMEIPGSMPPLIQEMLENSEGHEPLTPSSSGNTAEHSPSISPSSVENSGVSQSPLVQ
B2: RVRb: Rev-Erb β (NR1D2, alternative name RVR), cDNA driver (protein, UniProt Q14995 1-579, looked up)
Nuclear receptor subfamily 1 …: MEVNAGGVIAYISSSSSASSPASCHSEGSENSFQSSSSSVPSSPNSSNSDTNGNPKNGDLANIEGILKNDRIDCSMKTSKSSAPGMTKSHSGVTKFSGMVLLCKVCGDVASGFHYGVHACEGCKGFFRRSIQQNIQYKKCLKNENCSIMRMNRNRCQQCRFKKCLSVGMSRDAVRFGRIPKREKQRMLIEMQSAMKTMMNSQFSGHLQNDTLVEHHEQTALPAQEQLRPKPQLEQENIKSSSPPSSDFAKEEVIGMVTRAHKDTFMYNQEQQENSAESMQPQRGERIPKNMEQYNLNHDHCGNGLSSHFPCSESQQHLNGQFKGRNIMHYPNGHAICIANGHCMNFSNAYTQRVCDRVPIDGFSQNENKNSYLCNTGGRMHLVCPMSKSPYVDPHKSGHEIWEEFSMSFTPAVKEVVEFAKRIPGFRDLSQHDQVNLLKAGTFEVLMVRFASLFDAKERTVTFLSGKKYSVDDLHSMGAGDLLNSMFEFSEKLNALQLSDEEMSLFTAVVLVSADRSGIENVNSVEALQETLIRALRTLIMKNHPNEASIFTKLLLKLPDLRSLNNMHSEELLAFKVHP
B3: RVRa: Rev-Erb α (NR1D1), cDNA driver (protein, UniProt P20393 1-614, looked up)
Nuclear receptor subfamily 1 …: MTTLDSNNNTGGVITYIGSSGSSPSRTSPESLYSDNSNGSFQSLTQGCPTYFPPSPTGSLTQDPARSFGSIPPSLSDDGSPSSSSSSSSSSSSFYNGSPPGSLQVAMEDSSRVSPSKSTSNITKLNGMVLLCKVCGDVASGFHYGVHACEGCKGFFRRSIQQNIQYKRCLKNENCSIVRINRNRCQQCRFKKCLSVGMSRDAVRFGRIPKREKQRMLAEMQSAMNLANNQLSSQCPLETSPTQHPTPGPMGPSPPPAPVPSPLVGFSQFPQQLTPPRSPSPEPTVEDVISQVARAHREIFTYAHDKLGSSPGNFNANHASGSPPATTPHRWENQGCPPAPNDNNTLAAQRHNEALNGLRQAPSSYPPTWPPGPAHHSCHQSNSNGHRLCPTHVYAAPEGKAPANSPRQGNSKNVLLACPMNMYPHGRSGRTVQEIWEDFSMSFTPAVREVVEFAKHIPGFRDLSQHDQVTLLKAGTFEVLMVRFASLFNVKDQTVMFLSRTTYSLQELGAMGMGDLLSAMFDFSEKLNSLALTEEELGLFTAVVLVSADRSGMENSASVEQLQETLLRALRALVLKNRPLETSRFTKLLLKLPDLRTLNNMHSEKLLSFRVDAQ
B4: RARa: Retinoic acid receptor α (NR1B1), nuclear hormone receptor cDNA driver (protein, UniProt P10276 1-462, looked up)
Retinoic acid receptor alpha: MASNSSSCPTPGGGHLNGYPVPPYAFFFPPMLGGLSPPGALTTLQHQLPVSGYSTPSPATIETQSSSSEEIVPSPPSPPPLPRIYKPCFVCQDKSSGYHYGVSACEGCKGFFRRSIQKNMVYTCHRDKNCIINKVTRNRCQYCRLQKCFEVGMSKESVRNDRNKKKKEVPKPECSESYTLTPEVGELIEKVRKAHQETFPALCQLGKYTTNNSSEQRVSLDIDLWDKFSELSTKCIIKTVEFAKQLPGFTTLTIADQITLLKAACLDILILRICTRYTPEQDTMTFSDGLTLNRTQMHNAGFGPLTDLVFAFANQLLPLEMDDAETGLLSAICLICGDRQDLEQPDRVDMLQEPLLEALKVYVRKRRPSRPHMFPKMLMKITDLRSISAKGAERVITLKMEIPGSMPPLIQEMLENSEGLDTLSGQPGGGGRDGGGLAPPPGSCSPSLSPSSNRSSPATHSP
B5: RARg: Retinoic acid receptor γ (NR1B3), nuclear hormone receptor cDNA driver (protein, UniProt P13631 1-454, looked up)
Retinoic acid receptor gamma: MATNKERLFAAGALGPGSGYPGAGFPFAFPGALRGSPPFEMLSPSFRGLGQPDLPKEMASLSVETQSTSSEEMVPSSPSPPPPPRVYKPCFVCNDKSSGYHYGVSSCEGCKGFFRRSIQKNMVYTCHRDKNCIINKVTRNRCQYCRLQKCFEVGMSKEAVRNDRNKKKKEVKEEGSPDSYELSPQLEELITKVSKAHQETFPSLCQLGKYTTNSSADHRVQLDLGLWDKFSELATKCIIKIVEFAKRLPGFTGLSIADQITLLKAACLDILMLRICTRYTPEQDTMTFSDGLTLNRTQMHNAGFGPLTDLVFAFAGQLLPLEMDDTETGLLSAICLICGDRMDLEEPEKVDKLQEPLLEALRLYARRRRPSQPYMFPRMLMKITDLRGISTKGAERAITLKMEIPGPMPPLIREMLENPEMFEDDSSQPGPHPNASSEDEVPGGQGKGGLKSPA

Legend:
[1] = test system: RevErba promoter; assay: NHR-promoter luciferase screen, RevErba (RVRa) promoter; format: cell-based; design: key to mRevErba promoter reporter activity / Normalized Luc. act., normalized to control: luciferase activity normalized to lacZ and to control (no NHR/ligand); conditions: for Luc. act., normalized to lacZ / Normalized Luc. act., normalized to control / normalized Luc. act. on a logarithmic scale (column without head, Table 33) / negative reciprocal of normalized Luc. act. (fold repression; Table 33): RVRa promoter; for Luc. act., normalized to lacZ / Normalized Luc. act., normalized to control: HR component without or with ligand; for normalized Luc. act. on a logarithmic scale (column without head, Table 33): log10 of activity normalized to control; for mRevErba promoter reporter activity: transcription factor +/- ligand, control = 1.00; for negative reciprocal of normalized Luc. act. (fold repression; Table 33): given only where activity is below control
Protocol: Briefly, there were co-expressed 50 ng of each NHR/NHR homodimer or NHR/RXR heterodimer with 100 ng promoter/luciferase construct and 50 ng of LacZ (as a control for transfection efficiency) in CV-1 cells using Fugene HD (Roche) as a transfection reagent (alternatively or additionally, a CMV-YFP construct can be used as a transfection control). Each of the nuclear hormone receptors that were used in these experiments was cloned into a pcDNA3.1 vector and comprised a C-terminally linked V5H6 tag.
(§1) The promoters that facilitate transcription of the indicated gene products that were tested using the protocols described herein are listed in the first row of the table. The nuclear hormone receptors and, where applicable, ligands that were assayed for their transcriptional effects on the promoters are listed in the first column of the table. The data represent the luciferase activity of each sample normalized to both the lacZ activity of that sample and to a control, e.g., no NHR or ligand, as customary in the art. As described previously, these normalizations allow the transcriptional activity of each reporter cell to be compared to other samples.
The control data of each table are shown in their last rows.

[2] = test system: hMDR1 promoter; assay: NHR-promoter luciferase screen, hMDR1 promoter; format: cell-based, human; conditions: for Luc. act., normalized to lacZ / Normalized Luc. act., normalized to control: MDR1 promoter, HR/ligand component; for hMDR1 promoter reporter activity: transcription factor +/- ligand, control = 1.00
Protocol: (§2) The use, feasibility, and reproducibility of the functional NHR-promoter screen in a 48-well format have been tested validated. Briefly, there were co-expressed 50 ng of each NHR/NHR homodimer or NHR/RXR heterodimer with 100 ng promoter/luciferase construct and 50 ng of LacZ (as a control for transfection efficiency) in CV-1 cells using Fugene HD (Roche) as a transfection reagent (alternatively or additionally, a CMV-YFP construct can be used as a transfection control). Each of the nuclear hormone receptors that were used in these experiments was cloned into a pcDNA3.1 vector and comprised a C-terminally linked V5H6 tag. Twenty-four hours after transfection, appropriate ligands were added, where applicable, (see Table 5 for various ligands and concentrations and after 48 hrs, samples were assayed for luciferase and LacZ activity. To measure for luciferase activity 15 ul of sample was added to 30 ul of luciferase buffer (20 mM tricine, 1.07 mM MgCarbonate, 2.67 mM MgSulfate, 0.1 mM Naz-EDTA, 5 mM DTT, 5 mM ATP, 0.15 mg/ml CoA, 0.5 mM Luciferin), mixed briefly, and run in a Perkin Elmer Victor 5 luminometer. Thus, the functional NHR-promoter screen was used to observe the transcriptional activity of 29 promoters from various physiological pathways including inflammation, lipid and sugar metabolism, cholesterol transport, xenobiotic metabolism, and circadian rhythm.
as §1
(§3) Tables 7-40 show the transcriptional effects of the hormone receptors, and, where applicable, ligands (orphan receptors are screened without ligand), on each individual promoter. […] The control data of each table are shown in their last rows.

[3] = test system: mPOMC promoter; assay: NHR-promoter luciferase screen, mPOMC promoter; format: cell-based, mouse; conditions: for Results of assays of transcription factor (+/- ligand) with mPOMC: Table 6d, luciferase activity relative to control (control = 1.00); for Luc. act., normalized to lacZ / Normalized Luc. act., normalized to control: mPOMC promoter, HR component with or without ligand; for Normalized Luc. act., normalized to control: relative to control
Protocol: as §2, §1, §3

[4] = test system: mLeptin promoter; assay: NHR-promoter luciferase screen, mLeptin promoter; format: cell-based, mouse; conditions: for Luc. act., normalized to lacZ / Normalized Luc. act., normalized to control: Table 7, mLeptin; for Results of assays of transcription factor (+/- ligand) with mLeptin: Table 6d, luciferase activity relative to control (control = 1.00)
Protocol: as §2, §1, §3

[5] = test system: Bmal1 promoter; assay: NHR-promoter luciferase screen, Bmal1 promoter; format: cell-based, mouse; conditions: for Luc. act., normalized to lacZ / Normalized Luc. act., normalized to control: Bmal1 promoter, HR component without or with ligand; for mBmal1 promoter reporter activity: transcription factor +/- ligand, control = 1.00; for regulation of the Bmal1 promoter: FIG. 2c, in words
Protocol: as §2, §1, §3

Molecule | Luc. act., normalized to lacZ [1] | Normalized Luc. act., normalized to control [1] | normalized Luc. act. on a logarithmic scale (column without head, Table 33) [1] | mRevErba promoter reporter activity [1] | Luc. act., normalized to lacZ [2] | Normalized Luc. act., normalized to control [2] | hMDR1 promoter reporter activity [2] | Results of assays of transcription factor (+/- ligand) with mPOMC [3] | Luc. act., normalized to lacZ [3] | Normalized Luc. act., normalized to control [3] | Luc. act., normalized to lacZ [4] | Normalized Luc. act., normalized to control [4] | Results of assays of transcription factor (+/- ligand) with mLeptin [4] | Luc. act., normalized to lacZ [5] | Normalized Luc. act., normalized to control [5] | mBmal1 promoter reporter activity [5] | negative reciprocal of normalized Luc. act. (fold repression; Table 33) [1] | regulation of the Bmal1 promoter [5]
B1 | 45.6 | 1.6 | 0.21 | 1.63 | 0.3 | 1.0 | 0.97 | 1.85 | 127.4 | 1.8 | 2.7 | 0.9 | 0.91 | 15.6 | 1.0 | 1.00 |  | 
B2 | 2.06 | 0.1 | −1.13 | 0.07 | 0.3 | 0.9 | 0.94 | 0.85 | 58.4 | 0.8 | 4.4 | 1.5 | 1.50 | 0.8 | 0.1 | 0.05 | −13.5606 | specific repression
B3 | 9.76 | 0.3 | −0.46 | 0.35 | 0.2 | 0.6 | 0.64 | 1.13 | 77.9 | 1.1 | 2.5 | 0.9 | 0.86 | 2.5 | 0.2 | 0.16 | −2.865 | specific repression
B4 | 34.6 | 1.2 | 0.09 | 1.24 | 0.2 | 0.7 | 0.67 | 1.43 | 98.5 | 1.4 | 2.4 | 0.8 | 0.82 | 18.9 | 1.2 | 1.21 |  | 
B5 | 39.6 | 1.4 | 0.15 | 1.42 | 0.3 | 0.8 | 0.85 | 1.53 | 105.9 | 1.5 | 3.6 | 1.2 | 1.21 | 19.1 | 1.2 | 1.22 |  | 
